Results as given in article PMC8868134, “Molecular Determinants for OMF Selectivity in Tripartite RND Multidrug Efflux Systems” (Antibiotics, 2022).

What was measured:
[1] = target: TolC (outer membrane factor of E. coli) (Escherichia coli) (UniProt P02930); test: BLI; OMF or MexB stabilised in biotinylated non-ionic amphipol (BNAPol) immobilised on streptavidin (SAX) biosensors, MexA as analyte (0-100 uM for OMFs, 0-200 uM for MexB); BLItz device, room temperature; 10 mM Tris/HCl pH 7.4, 100 mM NaCl, 0.01% NaN3, 0.05% DDM; Langmuir 1:1 fit
[2] = target: OprN (outer membrane factor) (Pseudomonas aeruginosa) (UniProt Q9I0Y7); test: as above
[3] = target: MexB (RND inner membrane transporter) (Pseudomonas aeruginosa) (UniProt P52002); test: as above
[4] = target: OprM C-terminal deletion variant OprM_(Δ473-485) (Pseudomonas aeruginosa) (UniProt Q51487); test: as above
[5] = target: OprM wild type (outer membrane factor) (Pseudomonas aeruginosa) (UniProt Q51487); test: as above
[6] = target: MexA Q93R variant (Pseudomonas aeruginosa) (UniProt P52477); test: SEC + other: negative-staining EM; Superdex 200 PC 3.2/30 in 10 mM Tris/HCl pH 7.4, 100 mM NaCl, 0.01% NaN3, 0.05% DDM; peak fraction stained with uranyl acetate, single-particle average image
[7] = target: T1, OprM wild type (outer membrane factor) (Pseudomonas aeruginosa, UniProt Q51487 18-485); test: BLI; OMF or MexB stabilised in biotinylated non-ionic amphipol (BNAPol) immobilised on streptavidin (SAX) biosensors, MexA as analyte (0-100 uM for OMFs, 0-200 uM for MexB); BLItz device, room temperature; 10 mM Tris/HCl pH 7.4, 100 mM NaCl, 0.01% NaN3, 0.05% DDM; Langmuir 1:1 fit; details: both partners purified
T1 construct: OprM, outer membrane factor of MexA-MexB-OprM, Pseudomonas aeruginosa; Stabilised in biotinylated amphipol (BNAPol) for BLI and in MSP1D1/POPC nanodiscs for the tripartite complexes; also called OprMwt; OMF; source: expressed and purified from bacteria
T1 sequence: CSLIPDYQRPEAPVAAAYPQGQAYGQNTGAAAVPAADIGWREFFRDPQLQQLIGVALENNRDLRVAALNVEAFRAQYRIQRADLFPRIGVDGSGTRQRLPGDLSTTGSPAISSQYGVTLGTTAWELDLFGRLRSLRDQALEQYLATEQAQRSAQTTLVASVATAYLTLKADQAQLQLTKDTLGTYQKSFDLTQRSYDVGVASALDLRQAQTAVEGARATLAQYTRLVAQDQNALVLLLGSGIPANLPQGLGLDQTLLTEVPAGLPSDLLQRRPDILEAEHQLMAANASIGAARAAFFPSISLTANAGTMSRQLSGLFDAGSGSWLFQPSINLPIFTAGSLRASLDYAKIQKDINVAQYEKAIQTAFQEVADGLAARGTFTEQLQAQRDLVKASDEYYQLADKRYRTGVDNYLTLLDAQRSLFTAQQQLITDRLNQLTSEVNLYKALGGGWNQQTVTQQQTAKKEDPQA

Molecule | Kd [1] [µM] | koff [1] [s⁻¹] | kon [1] [M⁻¹ s⁻¹] | Kd [2] [µM] | koff [2] [s⁻¹] | kon [2] [M⁻¹ s⁻¹] | Kd [3] [µM] | koff [3] [s⁻¹] | kon [3] [M⁻¹ s⁻¹] | Kd [4] [µM] | koff [4] [s⁻¹] | kon [4] [M⁻¹ s⁻¹] | Kd [5] [µM] | koff [5] [s⁻¹] | kon [5] [M⁻¹ s⁻¹] | stoichiometry N [6] | Kd [7] [µM] | koff [7] [s⁻¹] | kon [7] [M⁻¹ s⁻¹]
MexA Q93R variant (from UniProt P52477 24-383) (natural protein) | 17.8 | 0.00191 | 108 | 26.9 | 0.00238 | 88 | 17.4 | 0.003 | 173 | 25.7 | 0.00263 | 102 | 32.9 | 0.00266 | 81 | 6 | – | – | –
MexA wild type (periplasmic adaptor protein of MexA-MexB-OprM) (from UniProt P52477 24-383) (natural protein) | 45.8 | 0.0058 | 127 | 20 | 0.00358 | 177 | – | – | – | 44 | 0.00458 | 103 | – | – | – | – | – | – | –
MexA wild type (periplasmic adaptor protein of MexA-MexB-OprM) (natural protein, MexA, periplasmic adaptor protein of the MexA-MexB-OprM efflux system, Pseudomonas aeruginosa; Kept in 0.05% DDM; also called MexAwt; PAP; source: expressed and purified from bacteria) CGKSEAPPPAQTPEVGIVTLEAQTVTLNTELPGRTNAFRIAEVRPQVNGIILKRLFKEGSDVKAGQQLYQIDPATYEADYQSAQANLASTQEQAQRYKLLVADQAVSKQQYADANAAYLQSKAAVEQARINLRYTKVLSPISGRIGRSAVTEGALVTNGQANAMATVQQLDPIYVDVTQPSTALLRLRRELASGQLERAGDNAAKVSLKLEDGSQYPLEGRLEFSEVSVDEGTGSVTIRAVFPNPNNELLPGMFVHAQLQEGVKQKAILAPQQGVTRDLKGQATALVVNAQNKVELRVIKADRVIGDKWLVTEGLNAGDKIITEGLQFVQPGVEVKTVPAKNVASAQKADAAPAKTDSKG | – | – | – | – | – | – | – | – | – | – | – | – | – | – | – | – | 12 | 0.00215 | 180
